Here are results for eleven molecules from patent publication US20250082756A1 (Regeneron, published 2025).

T1: MUC16 ectodomain stably expressed on engineered RD tumor cells (high, medium or low levels) (human)
T1 chain: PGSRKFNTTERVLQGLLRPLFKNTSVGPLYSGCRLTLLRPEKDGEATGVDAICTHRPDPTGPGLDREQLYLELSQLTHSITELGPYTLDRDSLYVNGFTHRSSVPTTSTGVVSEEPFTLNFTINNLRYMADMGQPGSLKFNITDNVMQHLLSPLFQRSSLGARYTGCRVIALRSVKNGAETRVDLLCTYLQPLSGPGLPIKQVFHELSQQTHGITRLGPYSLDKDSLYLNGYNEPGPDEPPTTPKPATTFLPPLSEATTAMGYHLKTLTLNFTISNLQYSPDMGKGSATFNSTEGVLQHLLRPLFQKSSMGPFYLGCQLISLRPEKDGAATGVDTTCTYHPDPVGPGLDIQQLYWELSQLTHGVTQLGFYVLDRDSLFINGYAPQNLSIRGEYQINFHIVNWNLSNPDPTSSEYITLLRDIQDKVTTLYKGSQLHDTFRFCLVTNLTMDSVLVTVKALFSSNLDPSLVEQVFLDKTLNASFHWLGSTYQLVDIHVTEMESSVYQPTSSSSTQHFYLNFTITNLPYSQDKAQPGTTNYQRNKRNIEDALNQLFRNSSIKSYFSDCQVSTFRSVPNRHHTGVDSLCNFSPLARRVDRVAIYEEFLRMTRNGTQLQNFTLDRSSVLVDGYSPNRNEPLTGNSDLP

T2: MUC16-nub ectodomain antigen (human MUC16 membrane proximal domain P13810-P14451 having a myc-myc-his tag) (human)
T2 chain: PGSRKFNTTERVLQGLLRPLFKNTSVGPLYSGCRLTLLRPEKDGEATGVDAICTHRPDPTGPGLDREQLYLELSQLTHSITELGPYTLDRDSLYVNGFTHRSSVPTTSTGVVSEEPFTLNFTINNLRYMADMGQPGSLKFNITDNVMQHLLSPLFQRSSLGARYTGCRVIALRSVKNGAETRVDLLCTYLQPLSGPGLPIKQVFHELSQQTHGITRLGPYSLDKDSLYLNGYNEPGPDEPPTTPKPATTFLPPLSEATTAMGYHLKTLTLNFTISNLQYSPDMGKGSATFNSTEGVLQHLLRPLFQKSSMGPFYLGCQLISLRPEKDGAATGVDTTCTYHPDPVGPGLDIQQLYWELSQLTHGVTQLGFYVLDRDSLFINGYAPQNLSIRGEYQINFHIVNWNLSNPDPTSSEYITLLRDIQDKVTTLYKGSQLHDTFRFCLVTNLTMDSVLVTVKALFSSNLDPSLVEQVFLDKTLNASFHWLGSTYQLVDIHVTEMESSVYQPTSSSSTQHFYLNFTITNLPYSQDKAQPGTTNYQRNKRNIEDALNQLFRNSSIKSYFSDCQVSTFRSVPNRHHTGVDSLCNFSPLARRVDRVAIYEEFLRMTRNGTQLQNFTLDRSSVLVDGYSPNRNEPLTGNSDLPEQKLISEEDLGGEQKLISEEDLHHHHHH

B1: pBB4015 CAR (8808 L-H; BBz) (other)
chain: EIVLTQSPDTLSLSPGERATLSCRASQSLSSNYLAWYRQKPGQAPRLLIYGISSRATGIPDRFSGSGSGTDFTLTISRLEPEDFAVYYCQQYGSSPWTFGQGTKVEIKGGGGSGGGGSGGGGSQVQLVESGGGVVQPGRSLRLSCVASGFTFSNYGIHWVRQAPGKGLEWVAVISDDGSFKFYADSVKGRFTISRDNSKNTLYLQMNSLRVEDSAVYHCAKWQHNWNDGGFDYWGQGTLVTVSSTTTPAPRPPTPAPTIASQPLSLRPEACRPAAGGAVHTRGLDFACDIYIWAPLAGTCGVLLLSLVITLYCKRGRKKLLYIFKQPFMRPVQTTQEEDGCSCRFPEEEEGGCELRVKFSRSADAPAYQQGQNQLYNELNLGRREEYDVLDKRRGRDPEMGGKPRRKNPQEGLYNELQKDKMAEAYSEIGMKGERRRGKGHDGLYQGLSTATKDTYDALHMQALPPR
B2: Anti-MUC16 8804 (antibody, V domains shown)
VH: EVQLVESGGGLVQPGRSLRLSCTGSGLTFGDYGMSWVRQAPGKGLEWVGFIRSKGYGGTTEYAASVKGRFTISRDDSKSTAYLQMNSLKTEDTAVYYCTSGGYDSSVHYYYYYYAMDVWGQGTTVTVSS
VL: not shown
notes: also called BBz) and pBB4013 (8804 L-H
B3: Anti-MUC16 8767 (antibody, V domains shown)
VH: QVQLVESGGGLVKPGGSLRLSCAASGFTFSNYYMSWVRQAPGKGLEWISYISGRGSTIFYADSVKGRITISRDNAKNSLFLQMNSLRAEDTAVYFCVKDRGGYSPYWGQGTLVTVSS
VL: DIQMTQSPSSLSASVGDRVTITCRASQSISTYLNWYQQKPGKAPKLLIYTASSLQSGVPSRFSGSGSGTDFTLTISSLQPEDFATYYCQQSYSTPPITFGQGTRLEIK
notes: also called BBz) and pBB4007 (8767 L-H
B4: Anti-MUC16 7138 (antibody, V domains shown)
VH: QVQLVQSGAEVKKPGASVKVSCKASGYTFTSSDINWVRQATGQGLEWVGWMNPNYGYTGSARKFQDRVTMTRNTSLSTAYLELHSLRSEDTAVYYCARVTYCSSVTSCFRPFTYWGQGTLVTVSA
VL: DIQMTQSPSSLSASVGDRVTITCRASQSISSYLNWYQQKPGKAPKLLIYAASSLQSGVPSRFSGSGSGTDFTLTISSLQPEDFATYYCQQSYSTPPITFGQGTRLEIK
notes: also called BBz) and pBB4003 (7138 L-H
B5: Anti-MUC16 8794 (antibody, V domains shown)
VH: QVQLVESGGGLVKPGGSLRLSCAASGFTFRDYSMSWIRQAPGKGLEWVSYVTFFNSAIYYADSVKGRFTISRDNAKNSLYLQMNSLRAEDTAVYYCAREREPIVGGFDYWGQGTLVTVSS
VL: DIQMTQSPSSLSASVGDRVTITCRASQSINSYLNWYQQKPGKAPKLLIYAASSLQGGVPSRFSGGGSGTDFTLTITSLQPEDFATFYCQQSYSSPPITFGQGTRLEIK
notes: also called BBz) and pBB4009 (8794 L-H
B6: Anti-MUC16 8755 (antibody, V domains shown)
VH: EVQLVESGGGLVQPGRSLRLSCAASGFTFNDYAMHWVRQSPGKGLEWVSGIDWNGGSIDYADSVKGRFTISRDTAKNSLYLQMNSLKVEDTALYYCAKDIGHWNYIGGMDVWGQGTTVTVSS
VL: B5 VL with S31I, L46F, G56T, G65S, T76S, Q79E, F86Y, Q90H, S94T
notes: also called BBz) and pBB4005 (8755 L-H
B7: Anti-MUC16 7135 (antibody, V domains shown)
VH: EVQLVESGGGLVQAGGSLRLSCAASGFTFSYHEMNWVRQAPGKGLEWVSYIGSRGTTKHYADPVKGRFTISRDNAKNSLYLQMNSLRAEDTAVYYCASEVGSILGYSMDVWGQGTTVTVSS
VL: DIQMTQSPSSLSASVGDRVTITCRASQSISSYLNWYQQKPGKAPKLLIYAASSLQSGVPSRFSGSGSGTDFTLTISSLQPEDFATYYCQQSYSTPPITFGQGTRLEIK
notes: also called BBz) and pBB4001 (7135 L-H
B8: Anti-MUC16 8813 (antibody, V domains shown)
VH: QVQLVQSGAEVKKPGASVKVSCKAFGYTLTGYYIHWVRQAPGQGLEWMGWINPNNGGTNYAQKFQGRVTMTRDKSISTAYMELSRLRSDDTAVYYCARSLELLPDGMDVWGQGTTVTVSS
VL: not shown
notes: also called BBz) and pBB4019 (8813 L-H
B9: Anti-MUC16 8799 (antibody, V domains shown)
VH: EVQLVESGGGLEQPGRSLRLSCTASGFAFGDHTMSWVRQAPGKGLEWVGFIRSRAYGGTTEYAASVKGRFTISRDDSKSIAYLQMDSLKTEDTAVYYCTSGGYDSSLHYYYYYHGMDVWGRGTTVTVSS
VL: EIVLTQSPGTLSLSPGERATLSCRASQSITSSYLAWYQQRPGQAPRLLIYGASSRATGIPDRFSGSGSGTDFTLTISRLEPEDFAVYYCQQYGSSPWTFGQGTKVEIK
notes: also called BBz) and pBB4011 (8799 L-H
B10: Anti-MUC16 8810 (antibody, V domains shown)
VH: EVQLVESGGALVQPGGSLRLSCAASGFTFSSYAMHWVRQAPGKGLEFVSTISYNGGTTYYADSVKGRFTVSRDNSKNTVFLRMGSLRTEDMAVYYCARAAAPWGQGTLVTVSS
VL: B9 VL with G9D, I29V, T30S, S31N, S32R, R40K, Q90H
notes: also called BBz) and pBB4017 (8810 L-H
B11: Anti-MUC16 8808 (antibody, V domains shown)
VH: QVQLVESGGGVVQPGRSLRLSCVASGFTFSNYGIHWVRQAPGKGLEWVAVISDDGSFKFYADSVKGRFTISRDNSKNTLYLQMNSLRVEDSAVYHCAKWQHNWNDGGFDYWGQGTLVTVSS
VL: B9 VL with G9D, I29L, T30S, S32N, Q38R, R40K, A52I
notes: also called BBz) and pBB4015 (8808 L-H

As a reminder, the Kd is the constant that tells how readily two partners part at equilibrium.

Numbering of substitutions follows the chain as printed. Some results are limits rather than exact numbers.

The target of one assay is T1, MUC16 ectodomain stably expressed on …. Kind of assay: cell-based or functional assay.
As to B1, the “percent (%) of tumor cell killing, RD low antigen positive tumor cells, 2.5:1 E:T ratio, 72 hours, impedance analyzer” value was below 60 % cytotoxicity and the “percent (%) of tumor cell killing, RD medium or high antigen positive tumor cells, all E:T ratios, 72 hours, impedance analyzer” value was above 70 % cytotoxicity.

The next assay deals with T2, MUC16-nub ectodomain antigen (human …). Kind of assay: cell-based or functional assay.
On to B1, for which the “EC50 (read off the curve); IFNγ release of BB4015 CAR T cells against the coating concentration of MUC16 nub” value is around 50 ng/mL.

For another assay the target is unchanged. Kind of assay: Binder Kd of Table 3; method and antigen not described.
B2 came in with a Kd of 1.86 nM.
In turn, B3 gave a Kd of 1.01 nM.
Turning to B4, the Kd was determined as 0.321 nM.
Molecule B5 showed a Kd of 0.554 nM.
Turning to B6, the Kd was found to be 0.124 nM.
The molecule B7 displayed a Kd of 10.5 nM.
B8 returned a Kd of 0.32 nM.
Regarding B9, the affinity, expressed as Kd, was 0.826 nM.
Still for that read-out and setting: for B10 the value was 1.12 nM; for B11, 0.277 nM.
